Key:
[1] = tested on: HEK293 cells stably transfected with human beta-Klotho; experiment: HEK293/beta-Klotho Erk phosphorylation assay; format: cell-based; conditions: without HSA; 12 minutes incubation; AlphaScreen SureFire Phospho-ERK1/2; read-out: pERK-HEK293-Beta-klotho without HSA [EC50 (nM)] Mean Value
Description: Erk phosphorylation assay was performed in HEK293 cells that were stably transfected with human beta-Klotho. The HEK293T/b-klotho stable cells were seeded at 30000 cells/well on 96-well plates. After two days, fresh media was added, and after 2 hours more the FGF21 proteins were added. The plates were incubated for 12 minutes. And total ERK phosphorylation was assessed using an AlphaScreen SureFire Phospho-ERK1/2 Assay Kit (Perkin Elmer, Waltham, Mass.) according to the manufacturer's instructions and an EnVision Multilabel Microplate Reader Model 2103 (Perkin Elmer) with the AlphaScreen HTS Turbo option was used for signal detection. Data are represented as means+/−S.E.M. EC50 values were determined from a 4-parameter logistic nonlinear regression analysis using GraphPad Prism version 5.02. References: Yie, J. et al.: FGF21 N- and C-termini play different roles in receptor interaction and activation, FEBS Letters 583 (2009) 19-24, and Micanovic R. et al.: Different roles of N- and C-termini in the functional activity of FGF21. J. Cell. Physiol. 2009 May; 219(2):227-34.

3T3-L1 adipocytes = experiment: Potency assay - glucose uptake in 3T3-L1 adipocytes; format: cell-based, mouse; conditions: EC50 relative to EC50 of Met-FGF21; 20 hours stimulation, 3H-deoxyglucose tracer
Description: The following assay was used for determining the biological activity, or potency, of FGF21 compounds of the invention. […] The cells are not allowed to reach confluence and should be passed (transferred to new vials) before reaching approx. 60% of confluency (by visual inspection). For the glucose uptake assay, cells are plated 80,000 cells/well in a 24 well plate, or 20,000 cells/well in a 96 well plate, and when they reach confluency (high density, with a view to have differentiated adipose cells made), the medium is changed from basal medium to basal medium containing Troglitazone, IBMX, Dexamethasone (commercially available from, e.g., Sigma) and human insulin (commercially available from, e.g., Novo Nordisk A/S). The cells are used 7-14, preferably 7-10, days after initiation of differentiation. […] This incubation is terminated by washing twice in ice cold assay buffer. The cells are lysed with Triton X-100 and lysates transferred to a 96 wells plate, microscint-40 (commercially available from, e.g., Perkin Elmer) is added and amount of tracer counted in a TOP-counter (e.g. a Packard top-counter from Perkin Elmer). The EC50 of the polypeptide in question is calculated.

[2] = Pharmacokinetics in mini pig, single intravenous dose; format: in vivo; conditions: normal male Göttingen mini pigs, single intravenous dose of 0.1 mg/kg; standard deviation 2.7 hours
Description: The pharmacokinetic profile of Met-FGF21 can be tested in normal male Göttingen mini pigs, n=4 (8-15 months old, weighing approximately 18-30 kg). The plasma concentration of the compound to be tested is monitored for 14 days. The Met-FGF21 is dosed as a single intravenous dose of 0.1 mg/kg (approximately 5 nmol/kg).
The plasma levels of the FGF21 compounds can be determined using Fibroblast Growth Factor-21 Human ELISA (available from BioVendor, catalogue no. RD191108200R). The PC based software, WinNonLin version 5.2 from Pharsight Corporation, Cary N.C., can be used for the pharmacokinetic calculation.

Molecule	EC50 [1]	Glucose uptake 3T3-L1 Potency (%) rel. to Met-FGF21 (3T3-L1 adipocytes)	mean half-life (T1/2) [2]
N-alpha(4-{[2-(2-{2-[2-(2-{2-[(S)-4-Carboxy-4-(17-carboxyheptadecanoylamino)butyrylamino]-ethoxy}ethoxy)acetylamino]ethoxy}ethoxy)acetylamino]methyl}benzyl) [S71C, N121Q, L166F, S167G, M168L, P171L, S172E, Q173A, G174V, Y179F, A180E, des181] Ala-FGF21 [Example 6]	0.4 nM	352%	
N-alpha-(4-{[2-(2-{2-[2-(2-{2-[(S)-4-carboxy-4-(17-carboxyheptadecanoylamino)butyrylamino]ethoxy}ethoxy)acetylamino]ethoxy}ethoxy)acetylamino]methyl}benzyl) [K56R, K59R, K69R, D102T, D121Q, K122R, L166F, S167G, M168L, G170T] Ala-FGF21 [Example 5]	1 nM	100%	
[Q28R, K56R, K59R, K69R, D102T, D121Q, K122R, L166F, S167G, M168L, G170T] Ala-FGF21 [Example 2b]	0.8 nM	416%	
[S71C, N121Q, L166F, S167G, M168L, 173aA, G174V, Y179F, A180E, des181] Ala-FGF21 (protein) AHPIPDSSPLLQFGGQVRQRYLYTDDAQQTEAHLEIREDGTVGGAADQSPESLLQLKALKPGVIQILGVKTCRFLCQRPDGALYGSLHFDPEACSFRELLLEDGYNVYQSEAHGLPLHLPGQKSPHRDPAPRGPARFLPLPGLPPALPEPPGILAPQPPDVGSSDPFGLVGPSQAVRSPSFE		394%	
[N121Q, L166F, S167G, M168L, P171L, S172E, Q173A, G174V, Y179F, A180E, des181] Ala-FGF21 (protein) HPIPDSSPLLQFGGQVRQRYLYTDDAQQTEAHLEIREDGTVGGAADQSPESLLQLKALKPGVIQILGVKTSRFLCQRPDGALYGSLHFDPEACSFRELLLEDGYNVYQSEAHGLPLHLPGQKSPHRDPAPRGPARFLPLPGLPPALPEPPGILAPQPPDVGSSDPFGLVGLEAVRSPSFES	0.7 nM	1593%	
[S71C, N121Q, L166F, S167G, M168L, P171L, S172E, Q173A, G174V, Y179F, A180E, des181] Ala-FGF21 (protein) AHPIPDSSPLLQFGGQVRQRYLYTDDAQQTEAHLEIREDGTVGGAADQSPESLLQLKALKPGVIQILGVKTCRFLCQRPDGALYGSLHFDPEACSFRELLLEDGYNVYQSEAHGLPLHLPGQKSPHRDPAPRGPARFLPLPGLPPALPEPPGILAPQPPDVGSSDPFGLVGLEAVRSPSFE		872%	
[S71C, N121Q, L166F, S167G, M168L, des170, 173aA, G174V, Y179F, A180E, des181] Ala-FGF21 (protein) AHPIPDSSPLLQFGGQVRQRYLYTDDAQQTEAHLEIREDGTVGGAADQSPESLLQLKALKPGVIQILGVKTCRFLCQRPDGALYGSLHFDPEACSFRELLLEDGYNVYQSEAHGLPLHLPGQKSPHRDPAPRGPARFLPLPGLPPALPEPPGILAPQPPDVGSSDPFGLVPSQAVRSPSFE		663%	
N-alpha-bis-(4-{[(2-(2-{2-[2-(2-{2-[(S)-4-carboxy-4-(17-carboxyheptadecanoylamino)butyrylamino]ethoxy}ethoxy)acetylamino]ethoxy}-ethoxy)acetylamino]methyl}benzyl) [Arg56, Arg59, Arg69, Arg122] … (conjugate, UniProt Q9NSA1 29-209, looked up, variant K56R K59R K69R K122R, N-terminal Gly; bis fatty diacid-linker benzyl acylation) Fibroblast growth factor 21: HPIPDSSPLLQFGGQVRQRYLYTDDAQQTEAHLEIREDGTVGGAADQSPESLLQLRALRPGVIQILGVRTSRFLCQRPDGALYGSLHFDPEACSFRELLLEDGYNVYQSEAHGLPLHLPGNRSPHRDPAPRGPARFLPLPGLPPALPEPPGILAPQPPDVGSSDPLSMVGPSQGRSPSYAS	4.6 nM	8.5%	
Met-FGF21 (protein, comparative compound) MHPIPDSSPLLQFGGQVRQRYLYTDDAQQTEAHLEIREDGTVGGAADQSPESLLQLKALKPGVIQILGVKTSRFLCQRPDGALYGSLHFDPEACSFRELLLEDGYNVYQSEAHGLPLHLPGNKSPHRDPAPRGPARFLPLPGLPPALPEPPGILAPQPPDVGSSDPLSMVGPSQGRSPSYAS		100%	10.8 h
[N121Q] Met-FGF21 (protein) MHPIPDSSPLLQFGGQVRQRYLYTDDAQQTEAHLEIREDGTVGGAADQSPESLLQLKALKPGVIQILGVKTSRFLCQRPDGALYGSLHFDPEACSFRELLLEDGYNVYQSEAHGLPLHLPGQKSPHRDPAPRGPARFLPLPGLPPALPEPPGILAPQPPDVGSSDPLSMVGPSQGRSPSYAS		119%	
[N121Q] Ala-FGF21 (protein) AHPIPDSSPLLQFGGQVRQRYLYTDDAQQTEAHLEIREDGTVGGAADQSPESLLQLKALKPGVIQILGVKTSRFLCQRPDGALYGSLHFDPEACSFRELLLEDGYNVYQSEAHGLPLHLPGQKSPHRDPAPRGPARFLPLPGLPPALPEPPGILAPQPPDVGSSDPLSMVGPSQGRSPSYAS		116%	
[K56R, K59R, K69R, K122R] Gly-FGF21 (protein) GHPIPDSSPLLQFGGQVRQRYLYTDDAQQTEAHLEIREDGTVGGAADQSPESLLQLRALRPGVIQILGVRTSRFLCQRPDGALYGSLHFDPEACSFRELLLEDGYNVYQSEAHGLPLHLPGNRSPHRDPAPRGPARFLPLPGLPPALPEPPGILAPQPPDVGSSDPLSMVGPSQGRSPSYAS		66%	

Source: patent publication US9655974B2, “N-terminal modified FGF21 compounds” (Novo Nordisk A/S, priority 2010, dated 2017)
